Substitutions are numbered along the chain they refer to. Where two headings read alike, the source gives them in different places.
T1: IL-36 receptor (heterodimer of IL-36R and IL-1RAcP) on human cells (human, UniProt Q9HB29 20-575; Q9NPH3 21-570)
T1 sequence (looked up) 1: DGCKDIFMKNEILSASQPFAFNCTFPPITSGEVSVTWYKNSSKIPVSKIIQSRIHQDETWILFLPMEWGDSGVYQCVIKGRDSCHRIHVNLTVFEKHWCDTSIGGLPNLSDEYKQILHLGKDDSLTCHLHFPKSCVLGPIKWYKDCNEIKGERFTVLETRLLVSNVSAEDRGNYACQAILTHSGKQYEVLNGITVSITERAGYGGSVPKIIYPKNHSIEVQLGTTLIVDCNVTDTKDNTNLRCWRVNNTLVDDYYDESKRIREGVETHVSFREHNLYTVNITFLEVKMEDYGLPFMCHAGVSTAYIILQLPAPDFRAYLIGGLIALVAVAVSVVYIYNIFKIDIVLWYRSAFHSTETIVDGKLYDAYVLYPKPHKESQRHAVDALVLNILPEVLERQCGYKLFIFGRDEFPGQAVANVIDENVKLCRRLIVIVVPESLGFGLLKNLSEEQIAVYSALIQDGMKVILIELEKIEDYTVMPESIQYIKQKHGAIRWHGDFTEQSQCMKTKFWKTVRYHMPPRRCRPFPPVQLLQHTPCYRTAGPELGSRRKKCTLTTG
T1 sequence (looked up) 2: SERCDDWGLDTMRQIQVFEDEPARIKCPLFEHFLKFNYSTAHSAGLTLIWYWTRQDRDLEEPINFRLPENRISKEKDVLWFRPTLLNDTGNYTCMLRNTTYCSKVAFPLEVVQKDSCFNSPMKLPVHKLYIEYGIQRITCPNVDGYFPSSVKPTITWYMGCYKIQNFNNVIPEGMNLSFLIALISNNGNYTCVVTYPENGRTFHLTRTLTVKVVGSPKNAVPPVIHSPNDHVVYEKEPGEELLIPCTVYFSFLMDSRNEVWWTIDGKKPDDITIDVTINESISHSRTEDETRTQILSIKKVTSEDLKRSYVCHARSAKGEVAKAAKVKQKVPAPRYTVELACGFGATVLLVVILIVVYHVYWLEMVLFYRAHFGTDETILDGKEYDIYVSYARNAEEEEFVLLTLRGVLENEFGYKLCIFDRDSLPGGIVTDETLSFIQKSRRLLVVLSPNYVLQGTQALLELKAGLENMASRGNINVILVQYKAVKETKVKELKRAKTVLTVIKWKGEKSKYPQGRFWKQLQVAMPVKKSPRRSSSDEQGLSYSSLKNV

T2: human IL-36α (R&D Systems cat#6995-IL-010/CF) (human, UniProt Q9UHA7 6-158)
T2 sequence (looked up): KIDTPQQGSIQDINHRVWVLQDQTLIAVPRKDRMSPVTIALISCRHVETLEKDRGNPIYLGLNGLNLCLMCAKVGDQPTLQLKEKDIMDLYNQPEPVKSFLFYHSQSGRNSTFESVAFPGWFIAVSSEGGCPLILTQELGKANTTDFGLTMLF

T3: human IL-36α(R12), truncated (human, UniProt Q9UHA7 6-158)
T3 construct: Untagged after removal of the His-SUMO tag; also called hIL-36alpha
T3 chain: T2 sequence (looked up) with Q7R

T4: cynomolgus IL-36α, truncated (cynomolgus macaque (Macaca fascicularis), UniProt Q9UHA7 14-158 (human entry), limits assumed)
T4 construct: Untagged after removal of the His-SUMO tag; also called cynomolgus IL-36 alpha; cyIL-36alpha
T4 chain: T2 sequence (looked up) with I2S, D3E, T4M, Q7P, G8V, T24I, M34V, A40S, V74A

T5: cynomolgus IL-36γ, truncated (cynomolgus macaque (Macaca fascicularis), UniProt Q9NZH8 18-167 (human entry), limits assumed)
T5 construct: Untagged after removal of the His-SUMO tag; also called cynomolgus IL-36 gamma; cyIL-36gamma
T5 chain: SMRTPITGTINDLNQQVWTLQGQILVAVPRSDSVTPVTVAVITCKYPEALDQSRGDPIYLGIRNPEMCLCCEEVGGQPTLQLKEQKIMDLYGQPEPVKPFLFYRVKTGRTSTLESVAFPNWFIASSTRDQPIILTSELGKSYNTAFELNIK

B1: human IL-36Ra, truncated (ligand)
chain: VLSGALCFRMKDSALKVLYLHNNQLLAGGLHAGKVIKGEEISVVPNRWLDASLSPVILGVQGGSQCLSCGVGQEPTLTLEPVNIMELYLGAKESKSFTFYRRDMGLTSSFESAAYPGWFLCTVPEADQPVRLTQLPENGGWNAPITDFYFQQCD
B2: 144D464A LV9are HV10b (antibody, V domains shown)
VH: QVQLVQSGAEVKKPGASVKVSCKASGFNIKDTYIHWVRQAPGQGLEWIGRIDPAIGTTRYDPKFQGRATITTDTSTSTVYLEFSSLRSEDTAVYYCARLHYFGNNFFFDYWGQGTLVTVSS
VL: QAVVTQEPSLTVSPGGTVTLTCRSSSGAVTTSNYANWVQEKPGQLFAGLIGGTNDRAPGVPARFSGSLLGGKAALTLSGAQPEDEADYFCALWFSNHWVFGGGTKLTVL
notes: Humanized
B3: 144D464A LV7a HV10b (antibody, V domains shown)
VH: B2 VH
VL: B2 VL with E40Q, L45A, L77I
notes: Humanized; also called humanized 144D464A antibody LV7a HV10b
B4: 144L249B LV9 HV10c (antibody, V domains shown)
VH: QVQLVQSGAEVKKPGASVKVSCKASGFNIKDTYIYWVRQAPGQGLEWIGRIDPAIGTTRYDPKFQGKATLTADTSTNTAYLELSSLRSEDTAVYYCARYDYSGSSFYFDYWGQGTLVTVSS
VL: B2 VL with S26T, A47T, F94Y, W98L
notes: Humanized
B5: human IL-36γ, truncated (ligand)
chain: SMCKPITGTINDLNQQVWTLQGQNLVAVPRSDSVTPVTVAVITCKYPEALEQGRGDPIYLGIQNPEMCLYCEKVGEQPTLQLKEQKIMDLYGQPEPVKPFLFYRAKTGRTSTLESVAFPDWFIASSKRDQPIILTSELGKSYNTAFELNIND

Key:
[1] = biological target: T1, IL-36 receptor (heterodimer of IL-36R …); experiment: cell-based or functional assay
[2] = biological target: T1, IL-36 receptor (heterodimer of IL-36R …); experiment: cell-based or functional assay; remark: listed apart in the source
[3] = biological target: T1, IL-36 receptor (heterodimer of IL-36R …); experiment: cell-based or functional assay; remark: listed apart in the source
[4] = biological target: T1, IL-36 receptor (heterodimer of IL-36R …); experiment: cell-based or functional assay; remark: listed apart in the source
[5] = biological target: B5; experiment: cell-based or functional assay
[6] = biological target: T2, human IL-36α (R&D Systems …); experiment: cell-based or functional assay
[7] = biological target: T3, human IL-36α(R12), truncated; experiment: SPR, Biacore, 1:1 Langmuir fit
Protocol: (§1) The humanized antibodies obtained in Example 6 were tested for their binding to recombinant human or cynomolgus macaque IL36a and IL-36γ in Biacore assays. The association time was set to 60 seconds, and the final dissociation time was set to 600 seconds. Equilibrium dissociation constant KD (kd/ka) of exemplary antibodies was determined using a 1:1 Langmuir fit model (see Tables 17-18 below).

[8] = biological target: B5; experiment: SPR, Biacore, 1:1 Langmuir fit
Protocol: as §1

[9] = biological target: T4, cynomolgus IL-36α, truncated; experiment: SPR, Biacore, 1:1 Langmuir fit
Protocol: as §1

[10] = biological target: T5, cynomolgus IL-36γ, truncated; experiment: SPR, Biacore, 1:1 Langmuir fit
Protocol: as §1

[11] = biological target: T3, human IL-36α(R12), truncated; experiment: SPR, Biacore, 1:1 Langmuir fit; heads of c3 and c4 printed swapped
Protocol: as §1

[12] = biological target: B5; experiment: as above
Protocol: as §1

[13] = biological target: T4, cynomolgus IL-36α, truncated; experiment: as above
Protocol: as §1

[14] = biological target: T5, cynomolgus IL-36γ, truncated; experiment: as above
Protocol: as §1

[15] = biological target: B5; experiment: cell-based or functional assay; remark: listed apart in the source
[16] = biological target: T2, human IL-36α (R&D Systems …); experiment: cell-based or functional assay; remark: listed apart in the source
[17] = biological target: T1, IL-36 receptor (heterodimer of IL-36R …); experiment: cell-based or functional assay; remark: listed apart in the source

IC50 of IL-8 secretion (AlphaLISA), HaCaT, 10 nM human IL-36γ [5] [nM] | IC50 of IL-8 secretion (AlphaLISA), HaCaT, 10 nM human IL-36α [6] [nM] | Kd [7] [nM] | Kd [8] [nM] | Kd [9] [nM] | Kd [10] [nM] | koff [11] [s⁻¹] | kon [11] [M⁻¹ s⁻¹] | koff [12] [s⁻¹] | kon [12] [M⁻¹ s⁻¹] | koff [13] [s⁻¹] | kon [13] [M⁻¹ s⁻¹] | koff [14] [s⁻¹] | kon [14] [M⁻¹ s⁻¹] | Binder | other results
 |  |  |  |  |  |  |  |  |  |  |  |  |  | B1 | IC50 of IL-8 secretion, HaCaT, 10 nM cynomolgus IL-36α, FIG. 2A [1]: 21.8 nM; IC50 of IL-8 secretion, HaCaT, 10 nM cynomolgus IL-36α, FIG. 2B [1]: 20.8 nM; IC50 of IL-8 secretion, HaCaT, 10 nM human IL-36α, FIG. 1A [1]: 39.9 nM; IC50 of IL-8 secretion, HaCaT, 10 nM human IL-36α, FIG. 1B [1]: 46.6 nM; IC50 of IL-8 secretion, HaCaT, 10 nM human IL-36α, FIG. 1C [1]: 90.6 nM; IC50 of IL-8 secretion, HaCaT, 10 nM cynomolgus IL-36γ, FIG. 2C [2]: 174 nM; IC50 of IL-8 secretion, HaCaT, 10 nM cynomolgus IL-36γ, FIG. 2D [2]: 235 nM; IC50 of IL-8 secretion, HaCaT, 10 nM human IL-36γ, FIG. 1D [2]: 45.1 nM; IC50 of IL-8 secretion, HaCaT, 10 nM human IL-36γ, FIG. 1E [2]: 86.5 nM; IC50 of IL-8 secretion, HaCaT, 10 nM human IL-36γ, FIG. 1F [2]: 129 nM; IC50 of IL-8 secretion, primary human keratinocytes, 6.25 nM human IL-36α, FIG. 4A [3]: 11.2 nM; IC50 of IL-8 secretion, primary human keratinocytes, 8 nM human IL-36α, FIG. 4B [3]: 34.6 nM; IC50 of IL-8 secretion, primary human keratinocytes, 8.4 nM human IL-36γ, FIG. 4C [3]: 109 nM; IC50 of IL-8 secretion, primary human keratinocytes, 8.4 nM human IL-36γ, FIG. 4D [3]: 47.9 nM; IC50 of IL-8 secretion, primary human monocytes, 6 nM human IL-36γ, FIG. 5C [4]: 38 nM; IC50 of IL-8 secretion, primary human monocytes, 20 nM human IL-36α, FIG. 5A [4]: 46.5 nM; IC50 of IL-8 secretion, primary human monocytes, 40 nM human IL-36α, FIG. 5B [4]: 69.1 nM; IC50 of IL-8 secretion, primary human monocytes, 50 nM human IL-36γ, FIG. 5D [4]: 76.3 nM
12.5 | 4.51 | 2.1 | 1.3 | 1.19 | 1.13 | 0.000445 | 212000 | 0.000436 | 336000 | 0.000422 | 354000 | 0.000493 | 434000 | B2 | 
7.83 | 3.9 | 2.09 | 1.31 | 1.25 | 1.18 | 0.000456 | 219000 | 0.000451 | 343000 | 0.000451 | 362000 | 0.000523 | 443000 | B3 | 
 |  | 0.992 | 0.625 | 0.674 | 0.552 | 0.000843 | 850000 | 0.000625 | 999000 | 0.00103 | 1.53e+06 | 0.000603 | 1.09e+06 | B4 | IC50 of IL-8 secretion (AlphaLISA), HaCaT, 10 nM human IL-36γ [15]: 11.5 nM; IC50 of IL-8 secretion (AlphaLISA), HaCaT, 10 nM human IL-36α [16]: 5.13 nM
 |  |  |  |  |  |  |  |  |  |  |  |  |  | B5 | EC50 (read off the curve) [17]: ~1 nM

From patent US20210380675A1 (Kyowa Kirin, published 2021)
